Assay results as given in patent US20160228506A1, “Compositions and Formulations for Prevention and Reduction of Tumorigenesis, Cancer Cell Proliferation and Invasion, and Methods of Production and Use Thereof in Cancer Treatment” (PRONUTRIA, INC., priority 2013, published 2016).

B1: SEQID-00484: protein of the 168 nutritive polypeptide library (protein, listed as Saccharomyces cerevisiae)
chain: MSEKFPPLEDQNIDFTPNDKKDDDTDFLKREAEILGDEFKTEQDDILETEASPAKDDDEIRDFEEQFPDINSANGAVSSDQNGSATVSSGNDNGEADDDFSTFEGANQSTESVKEDRSEVVDQWKQRRAVEIHEKDLKDEELKKELQDEAIKHIDDFYDSYNKKKEQQLEDAAKEAEAFLKKRDEFFGQDNTTWDRALQLINQDDADIIGGRDRSKLKEILLRLKGNAKAPGA
modifications: source: /note="strain ATCC 204508 / S288c"
notes: protein of the 168 nutritive polypeptide library
B2: SEQID-00529: protein of the 168 nutritive polypeptide library (protein)
chain: MLGYISAGKMGSSPSGARFFKYEVVGMRQNDETDKTEYQIRSSGSQFVIVPYNRMNQEMRRINRMGGKIVSIEPMTTDNTVSEAEGE
modifications: Arthrospira platensis Sp-1
notes: as for B1
B3: SEQID-00489: protein of the 168 nutritive polypeptide library (protein, listed as Saccharomyces cerevisiae)
chain: MSVEEVSKKFEENVSVDDTTATPKTVLSDSAHFDVKHPLNTKWTLWYTKPAVDKSESWSDLLRPVTSFQTVEEFWAIIQNIPEPHELPLKSDYHVFRNDVRPEWEDEANAKGGKWSFQLRGKGADIDELWLRTLLAVIGETIDEDDSQINGVVLSIRKGGNKFALWTKSEDKEPLLRIGGKFKQVLKLTDDGHLEFFPHSSANGRHPQPSITL
modifications: source: /note="strain ATCC 204508 / S288c"
notes: as for B1
B4: SEQID-00528: protein of the 168 nutritive polypeptide library (protein, listed as Saccharomyces cerevisiae)
chain: MVLVQDLLHPTAASEARKHKLKTLVQGPRSYFLDVKCPGCLNITTVFSHAQTAVTCESCSTVLCTPTGGKAKLSEGTSFRRK
modifications: source: /note="strain ATCC 204508 / S288c"
notes: as for B1
B5: SEQID-00509: protein of the 168 nutritive polypeptide library (protein, listed as Gadus morhua)
chain: MSDTEDVDQVEDEKPKFKPSAPKIPDGEKVDFDDIQKKRQNKDLSELQGLIDAHFEGRKKEEEELIALKERIEKRRAERAEQQRIRSEKDKERQARREEERLKREEADAKKKMEEDAKKKSALSNMGSNYSSHLQKADQKRGGGKKETEREKKKKILAARRKGLNIDHLNEDKLKDKINELHEWMSTLESEKFDHMERLNRQKYEVTTLRKRVEELSKFSKKGKTVRRK
B6: SEQID-00497: protein of the 168 nutritive polypeptide library (protein, listed as Saccharomyces cerevisiae)
chain: MSIASYAQELKLALHQYPNFPSEGILFEDFLPIFRNPGLFQKLIDAFKLHLEEAFPEVKIDYIVGLESRGFLFGPTLALALGVGFVPVRKAGKLPGECFKATYEKEYGSDLFEIQKNAIPAGSNVIIVDDIIATGGSAAAAGELVEQLEANLLEYNFVMELDFLKGRSKLNAPVFTLLNAQKEALKK
modifications: source: /note="strain ATCC 204508 / S288c"
notes: as for B1
B7: SEQID-00520: protein of the 168 nutritive polypeptide library (protein, listed as Gallus gallus)
chain: MSDEEKKRRAATARRQHLKSAMLQLAVTEIEKEAAAKEVEKQNYLAEHCPPLSLPGSMQELQELCKKLHAKIDSVDEERYDTEVKLQKTNKELEDLSQKLFDLRGKFKRPPLRRVRMSADAMLRALLGSKHKVNMDLRANLKQVKKEDTEKEKDLRDVGDWRKNIEEKSGMEGRKKMFEAGES
B8: SEQID-00507: protein of the 168 nutritive polypeptide library (protein, listed as Agaricus bisporus)
chain: MISFYDLTAKPPFKTVSVNSWKIRYALNFKNLPYKTLYFEFPDMAKEFSKVGIPPSSVSADGPSYTVPSLIDDSTNTRISESFTIALYLDKQYPDAPKLFPAGTEALQAAFHEEFYKVMSPTFPFFFPKAGNVLNKPSDDYFAVTRAKMFGMSMADFEPKGEARVEAWKKVKDAFDTLESWMSKTSGPFFMGETVSFADFVIGGLLNEFSMCMGENSPEWQDVLKWNNGRWATLKKKLEVYANTDQ
modifications: source: /note="var. bisporus"; source: /note="strain H97 / ATCC MYA-4626 / FGSC 10389"
notes: as for B1
B9: SEQID-00521: protein of the 168 nutritive polypeptide library (protein, listed as Arthrospira platensis)
chain: MQDAITSVINSSDVQGKYLDASAIQKLKAYFATGELRVRAATTISANAANIVKEAVAKSLLYSDITRPGGNMYTTRRYAACIRDLDYYLRYATYAMLAGDPSILDERVLNGLKETYNSLGVPIGATVQAIQAMKEVTAGLVGADAGKEMGIYFDYICSGLS
B10: SEQID-00524: protein of the 168 nutritive polypeptide library (protein)
chain: MPAWYSIDSRVRGTSLVVKGLKENVEYHFRVSAENQFGISKPMKSEEPVIPKTPLSKASSNHNTVNFLS
modifications: Ovis aries
notes: as for B1
B11: SEQID-00518: protein of the 168 nutritive polypeptide library (protein, listed as Lactobacillus acidophilus)
chain: MTKGILGRKVGMTQIFTKDGVLVPVTVVEATPNVVMQVKTVESDGYEAVQLGYQDKREVLSNKPEKGHADKAKTSPKRFIREIRGVELKDYEVGSEVTVDTFKEGDVVNVTGTSRGHGYQGNIKRWGQSRGPETHGSRYHRIPGSMGSIINRVPKGKRLPGHMGVKKVTIENLVIEKVVADKNVLMIKGNVPGAKNSLIVVKTASKAVKADK
modifications: source: /note="strain 30SC"
notes: as for B1
B12: SEQID-00495: protein of the 168 nutritive polypeptide library (protein, listed as Vitis vinifera)
chain: MEKNVESDPNPPLASGPEFPPATTPADVKNDVALEKSVVPPPEVKADESKALAVVEKTPDSAAKKTSGGSFERDVALANLEKEKQLSFIRAWEESEKSKVDNKAQKKLSDVCAWENSKKAAVEANLKKIEEELEKKKAEYAEKMKNKVALIHKQAEEKKAMIEARRGEEFLKAEEMAAKFRATGQTPKKVLGCFGG
B13: SEQID-00525: protein of the 168 nutritive polypeptide library (protein, listed as Saccharomyces cerevisiae)
chain: MTKNFIVTLKKNTPDVEAKKFLDSVHHAGGSIVHEFDIIKGYTIKVPDVLHLNKLKEKHNDVIENVEEDKEVHT
modifications: source: /note="strain ATCC 204508 / S288c"
notes: as for B1
B14: SEQID-00515: protein of the 168 nutritive polypeptide library (protein, listed as Saccharomyces cerevisiae)
chain: MSNLLNKFADKLHGNDHDERYEDDNDDQTRQQRHEKHQQREFRNQGSKADPYGEENQGNFPQRQQPQSNLGGNTQFGGNDFQQQTTDYTAGTGGGTYTQTYRETNTQGQLDDDEDDDFLTSGQQQKQGRTRGAQSNRYQSSNIGSGRRDLSGSGNDEYDDDSGNQGVW
modifications: source: /note="strain ATCC 204508 / S288c"
notes: as for B1

experiment: SGF digest of 168 nutritive polypeptide library, intact protein by LC-MS/MS; format: in vitro ADME; conditions: 168 nutritive polypeptide library SGF digest, LC-MS/MS spectral counts
Procedure: The in vitro intact half-life of multiple polypeptides in a complex mixture was determined using the simulated gastric in vitro digestion described above. Briefly, the 168 nutritive polypeptide library was generated as described herein by cloning, transforming, and expressing a gene library encoding 168 proteins as a single mixture. The recombinantly expressed proteins were purified from host cell proteins by IMAC purification as described herein.
The 168 Protein Library was treated with SGF as described above and the t=0 and t=10 min samples were analyzed for intact protein by LC-MS/MS. To begin, 10 μg of sample was loaded onto a 10% SDS-PAGE gel (Invitrogen) and run approximately 5 cm into the gel. The gel was excised into ten fractions from 100 kD to the dye front and the gel slices were processed by washing with 25 mM ammonium bicarbonate, followed by acetonitrile. Gel fractions were then reduced with 10 mM dithiothreitol at 60° C., followed by alkylation with 50 mM iodoacetamide at room temperature. Finally, the samples were digested with trypsin (Promega) at 37° C. for 4 h and the digestions were quenched with the addition of formic acid. The samples were then analyzed by nano LC/MS/MS using an EasynLC 1000 HPLC system interfaced to a ThermoFisher Q Exactive. Peptides were loaded on a trapping column and eluted over a 75 μm analytical column at 350 nL/min; both columns were packed with PepMap C18 3 μm resin (ThemoFisher). A 1 hour gradient was employed. The mass spectrometer was operated in data-dependent mode, with MS and MS/MS performed in the Orbitrap at 70,000 FWHM resolution and 17,500 FWHM resolution, respectively. The fifteen most abundant ions were selected for MS/MS. Data were searched against an appropriate database using Mascot to identify peptides. Mascot DAT files were parsed into the Scaffold software for validation, filtering and to create a nonredundant list per sample. Data were filtered at 1% protein and peptide false discovery rate (FDR) and requiring at least two unique peptides per protein. A full list of detected proteins and their spectral counts (SpC) was generated and reported as a function of each collected gel fraction. SpC are a count of the number of spectra identified for a given protein and are used as a measure of relative protein abundance (Liu, H. et al., Analytical Chemistry 2004, 76: 4193-4201). To calculate the percentage of intact protein remaining at the 10 min time point of the SGF digest the number of SpC representative of intact peptide in the t=10 min sample were divided by the number of SpC representative of intact peptide in the t=0 min sample. The number of SpC representative of intact peptide was defined as the sum of the SpC in the fraction with the highest number of SpC assigned to that protein in the t=0 min sample and the two flanking fractions.

With B1 as the molecule, how does the “% Intact Protein at 10 min” value read?
The value was 0%.

For B2, which “% Intact Protein at 10 min” value is on record?
The value was 0%.

For B3, which “% Intact Protein at 10 min” value is on record?
Its value is 0%.

With B4 as the molecule, how does the “% Intact Protein at 10 min” value read?
The value was 11.8%.

With B5 as the molecule, how does the “% Intact Protein at 10 min” value read?
The value was 36.4%.

With B6 as the molecule, how does the “% Intact Protein at 10 min” value read?
Its value is 20.3%.

With B7 as the molecule, how does the “% Intact Protein at 10 min” value read?
The value was 0%.

Which “% Intact Protein at 10 min” value does the source give for B8 here?
The value was 0%.

Which “% Intact Protein at 10 min” value does the source give for B9 here?
The value was 11.5%.

Which “% Intact Protein at 10 min” value does the source give for B10 here?
The value was 0%.

With B11 as the molecule, how does the “% Intact Protein at 10 min” value read?
Its value is 0%.

With B12 as the molecule, how does the “% Intact Protein at 10 min” value read?
Its value is 0%.

With B13 as the molecule, how does the “% Intact Protein at 10 min” value read?
The value was 13.7%.

Which “% Intact Protein at 10 min” value does the source give for B14 here?
The value was 17%.
